Measurements taken from patent US12570750B2, “Antibodies that bind adenosine A2A receptors and methods of use thereof to treat cancer and neurological diseases” (Twist Bioscience Corporation, priority 2019, dated 2026).

Target: adenosine A2A receptor (Homo sapiens, UniProt P29274)
Assay: LANCE allosteric cAMP assay: titrated IgG, then fixed NECA concentration
Format: cell-based
Conditions: Table 12
Protocol: A2A-1 and A2A-9 were assayed for allosteric modulation.
A2A-9 was assayed as described in Example 16.

Sequence of adenosine A2A receptor (P29274 whole entry): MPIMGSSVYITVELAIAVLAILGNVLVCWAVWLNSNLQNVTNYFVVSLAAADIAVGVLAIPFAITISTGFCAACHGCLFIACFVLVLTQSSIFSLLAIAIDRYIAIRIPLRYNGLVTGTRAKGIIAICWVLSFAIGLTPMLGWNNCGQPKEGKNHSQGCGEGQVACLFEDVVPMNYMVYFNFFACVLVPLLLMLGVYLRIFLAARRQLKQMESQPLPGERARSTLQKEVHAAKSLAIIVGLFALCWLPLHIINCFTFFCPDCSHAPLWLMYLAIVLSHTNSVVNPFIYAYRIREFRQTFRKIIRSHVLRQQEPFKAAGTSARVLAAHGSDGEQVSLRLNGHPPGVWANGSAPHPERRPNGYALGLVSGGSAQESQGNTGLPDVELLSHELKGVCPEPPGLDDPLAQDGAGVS

B1: A2A-9: A2AR variant immunoglobulin, CDRH1-3 SEQ ID NOs 14/103/192 (antibody, V domains shown)
VH: EVQLQQSGPGLVKPSQSLSLTCSVTGYSITSGYYWNWIRQFPGKKLEWMGYIRYDGSNNYNPSLKNRISITRDTSKNQFFLKLNSVTTDDTATYYCARVHHYYGSSYFDYWGQGTTLTVSS
VL: DIVMTQSQKFMSTSVGDRVSATCKASQNVGSSVAWFQQKPGQSPKALIYSTSYRYSGVPDRFTGSGSGTDFTLTISNVQSEDLAEYFCQQYNSYPLTFGAGTKLEIK
- Functional classification, Example 18: antagonist
